How the values were obtained:
caspase-9 = biological target: T1, caspase-9 (Homo sapiens, UniProt P55211); assay: Co-immunoprecipitation of ARC with caspase-9; type: binding; settings: 293T lysates
T1 construct: expressed in transfected cells; host or cells: human 293T cells
T1 sequence (P55211 1-416): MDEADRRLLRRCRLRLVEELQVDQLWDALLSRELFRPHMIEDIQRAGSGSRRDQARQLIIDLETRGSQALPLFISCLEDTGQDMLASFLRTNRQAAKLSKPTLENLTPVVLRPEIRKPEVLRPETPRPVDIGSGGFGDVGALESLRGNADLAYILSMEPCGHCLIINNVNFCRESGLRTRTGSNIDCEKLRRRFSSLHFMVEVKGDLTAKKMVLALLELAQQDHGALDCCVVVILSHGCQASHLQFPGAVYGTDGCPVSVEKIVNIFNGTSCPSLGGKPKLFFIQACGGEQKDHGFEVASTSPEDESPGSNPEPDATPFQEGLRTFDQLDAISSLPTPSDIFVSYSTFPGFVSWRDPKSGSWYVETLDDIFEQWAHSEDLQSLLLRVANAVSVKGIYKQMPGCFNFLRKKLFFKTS
Procedure: (§1) Briefly, 2 μg of pcDNA3 or pcDNA3-ARC-Flag or -HA was co-transfected with 3 μg of pcDNA3 or caspase expression plasmids. Total amount of transfected plasmid DNA was always 5 μg. 293T cells were harvested after 22 hr and lysed with 0.2% NP-40 isotonic lysis buffer [Z. N. Oltvai et al., Cell 74:609-619 (1993)]. For immunoprecipitation, […] of soluble protein was incubated with 10 μg/ml of polyclonal anti-Flag, monoclonal anti-AU1 or polyclonal anti-HA antibody for 2 hr at 4° C. and tagged proteins were immunoprecipitated with Protein A-Sepharose 4B (Zymed Laboratories Inc., San Francisco, Calif.). Immunoprecipitates were subjected to 12% SDS-polyacrylamide electrophoresis and immunoblotted with anti-Flag, anti-AU1 or anti-HA antibodies.

CED-3 = biological target: T2, CED-3 (Caenorhabditis elegans, UniProt P42573); assay: Co-immunoprecipitation of ARC with CED-3; type: binding, C. elegans; settings: 293T lysates
T2 construct: expressed in transfected cells; host or cells: human 293T cells
T2 sequence (P42573 222-503): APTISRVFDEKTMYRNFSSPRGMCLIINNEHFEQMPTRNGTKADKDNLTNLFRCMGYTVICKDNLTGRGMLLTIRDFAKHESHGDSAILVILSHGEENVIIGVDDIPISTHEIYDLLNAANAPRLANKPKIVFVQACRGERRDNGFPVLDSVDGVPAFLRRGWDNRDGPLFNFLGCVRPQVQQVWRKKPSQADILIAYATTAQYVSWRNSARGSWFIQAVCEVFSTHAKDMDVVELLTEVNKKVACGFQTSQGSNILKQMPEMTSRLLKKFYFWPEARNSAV
Procedure: as §1

[1] = biological target: T3, C-caspase-8-HA (human caspase-8 amino acids 216-496, C-terminal HA tag) (human, UniProt Q14790-4 216-496); assay: co-immunoprecipitation of caspase-8 deletion mutants from 293T cells, immunoblot
T3 construct: range 216-496; The canonical UniProt entry has 479 residues; also called pcDNA3-C-caspase-8-HA; C-terminal region that contains the catalytic domain of caspase-8; not shown: C-terminal HA tag

caspase-8 [2] = assay: Co-immunoprecipitation of ARC with caspase-8; type: binding, human; settings: 293T lysates
Procedure: as §1

caspase-8 [3] = biological target: T4, caspase-8 (Homo sapiens, UniProt Q14790); assay: Co-immunoprecipitation of ARC with caspase-8; type: binding; settings: caspase-8 deletion mutant
T4 construct: expressed in transfected cells; host or cells: human 293T cells
Procedure: as §1

[4] = system: FADD, RAIDD, Bcl-XL, and c-IAP-2; assay: Association of ARC with other apoptosis regulatory molecules; type: binding; settings: data not shown
Procedure: as §1

caspase-3 = biological target: T5, caspase-3 (Homo sapiens, UniProt P42574); assay: Co-immunoprecipitation of ARC with caspase-3; type: binding; settings: 293T lysates
T5 construct: expressed in transfected cells; host or cells: human 293T cells
T5 sequence (P42574 29-277): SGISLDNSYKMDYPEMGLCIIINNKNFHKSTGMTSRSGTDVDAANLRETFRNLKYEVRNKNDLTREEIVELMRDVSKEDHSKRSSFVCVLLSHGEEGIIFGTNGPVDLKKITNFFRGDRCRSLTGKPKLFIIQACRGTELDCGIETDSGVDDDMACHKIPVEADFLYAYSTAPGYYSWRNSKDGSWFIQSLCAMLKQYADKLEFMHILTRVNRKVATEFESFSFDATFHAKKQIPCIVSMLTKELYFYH
Procedure: as §1

[5] = biological target: T6, caspase-1, epitope-tagged (human, UniProt P29466 1-404); assay: co-immunoprecipitation from co-transfected 293T cells, immunoblot
T6 construct: also called pcDNA3-caspase-1-Flag
T6 sequence: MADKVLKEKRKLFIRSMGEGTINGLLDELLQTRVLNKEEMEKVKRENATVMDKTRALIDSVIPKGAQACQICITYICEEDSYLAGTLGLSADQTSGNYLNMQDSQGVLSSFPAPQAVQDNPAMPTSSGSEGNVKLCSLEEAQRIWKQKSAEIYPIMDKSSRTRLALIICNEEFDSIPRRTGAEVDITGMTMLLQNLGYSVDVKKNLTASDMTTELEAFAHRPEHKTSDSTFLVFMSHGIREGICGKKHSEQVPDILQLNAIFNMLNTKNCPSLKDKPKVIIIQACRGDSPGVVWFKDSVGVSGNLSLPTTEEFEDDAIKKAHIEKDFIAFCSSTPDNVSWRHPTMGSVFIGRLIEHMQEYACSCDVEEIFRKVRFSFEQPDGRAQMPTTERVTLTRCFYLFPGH

[6] = biological target: T7, caspase-3, epitope-tagged (UniProt P42574 1-277); assay: as above
T7 construct: also called pcDNA3-caspase-3-Flag; not shown: position and
T7 sequence (looked up): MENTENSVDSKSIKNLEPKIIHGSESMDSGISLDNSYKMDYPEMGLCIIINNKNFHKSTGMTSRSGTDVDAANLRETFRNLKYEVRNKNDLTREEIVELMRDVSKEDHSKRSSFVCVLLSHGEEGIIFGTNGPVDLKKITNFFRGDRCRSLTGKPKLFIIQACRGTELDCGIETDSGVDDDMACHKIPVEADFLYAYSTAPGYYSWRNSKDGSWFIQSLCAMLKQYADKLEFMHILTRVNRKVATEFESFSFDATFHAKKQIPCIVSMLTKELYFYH

[7] = biological target: T8, caspase-9, Flag-tagged (pcDNA3-caspase-9-Flag) (UniProt P55211 1-416); assay: as above
T8 construct: not shown: Flag tag
T8 sequence (looked up): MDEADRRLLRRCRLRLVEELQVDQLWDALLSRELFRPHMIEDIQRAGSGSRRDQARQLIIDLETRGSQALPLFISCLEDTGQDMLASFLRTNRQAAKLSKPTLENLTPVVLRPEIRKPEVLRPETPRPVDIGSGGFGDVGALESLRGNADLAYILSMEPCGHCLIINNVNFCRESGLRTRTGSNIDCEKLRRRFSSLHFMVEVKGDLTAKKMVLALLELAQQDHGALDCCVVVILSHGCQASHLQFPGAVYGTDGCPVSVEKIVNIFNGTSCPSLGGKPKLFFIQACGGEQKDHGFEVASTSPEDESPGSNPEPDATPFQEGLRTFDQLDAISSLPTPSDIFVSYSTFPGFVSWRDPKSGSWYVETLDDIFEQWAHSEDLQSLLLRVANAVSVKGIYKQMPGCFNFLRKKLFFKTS

T4 sequence (Q14790 1-215 isoform Q14790-4): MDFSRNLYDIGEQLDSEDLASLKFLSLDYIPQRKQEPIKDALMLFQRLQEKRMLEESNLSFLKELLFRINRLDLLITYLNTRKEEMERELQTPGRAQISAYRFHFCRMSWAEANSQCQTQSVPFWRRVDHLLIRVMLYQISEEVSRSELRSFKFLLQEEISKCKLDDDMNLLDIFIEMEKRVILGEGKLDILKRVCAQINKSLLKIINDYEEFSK
T3 sequence (Q14790 199-479 limits assumed): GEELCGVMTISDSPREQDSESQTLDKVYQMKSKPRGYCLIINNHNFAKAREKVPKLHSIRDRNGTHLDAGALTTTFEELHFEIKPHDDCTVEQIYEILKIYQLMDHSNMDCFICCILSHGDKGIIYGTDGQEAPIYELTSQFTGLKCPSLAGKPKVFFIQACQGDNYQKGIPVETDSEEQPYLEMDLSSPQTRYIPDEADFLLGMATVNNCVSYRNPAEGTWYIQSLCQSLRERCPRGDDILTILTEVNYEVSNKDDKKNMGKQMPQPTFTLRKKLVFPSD

B1: human ARC (Apoptosis Repressor with CARD domain), C-terminally Flag- or HA-tagged (other)
chain: MGNAQERPSETIDRERKRLVETLQADSGLLLDALLARGVLTGPEYEALDALPDAERRVRRLLLLVQGKGEAACQELLRCAQRTAGAPDPAWDWQHVGPGYRDRSYDPPCPGHWTPEAPGSGTTCPGLPRASDPDEAGGPEGSEAVQSGTPEEPEPELEAEASKEAEPEPEPEPELEPEAEAEPEPELEPEPDPEPEPDFEERDESEDS
notes: Entire open reading frame expressed in 293T cells; The two tagged constructs are merged here; also called ARC-Flag; ARC-HA; not shown: C-terminal FLAG or HA tag
co-immunoprecipitation with caspase-9 (caspase-9): not | co-immunoprecipitation with CED-3 (CED-3): co-immunoprecipitated | binding result [1]: no binding | co-immunoprecipitation with caspase-8 (caspase-8 [2]): co-immunoprecipitated | association with the N-terminal death effector domain (DED) of caspase-8 (caspase-8 [3]): associated | association with FADD, RAIDD, Bcl-XL, and c-IAP-2 [4]: did not associate | co-immunoprecipitation with caspase-3 (caspase-3): not | binding result [5]: no binding | binding result [6]: no binding | binding result [7]: no binding

Reference: patent US6348573B1, “Compositions and methods for identifying apoptosis signaling pathway inhibitors and activators” (The Regents of the University of Michigan, priority 1998, dated 2002)
